Results reported in patent EP0714402B9, “POLYMER MODIFICATION” (PolyMASC Pharmaceuticals plc, priority 1993, dated 1995).

Columns and labels:
[1] = blood clearance after subcutaneous injection with [125I]GM-CSF tracer; format: in vivo, BALB/c, male, 6-8 week-old mice; conditions: late clearing component; for fold increase of t1/2 over the control figure: figures in parentheses; for t1/2: subcutaneous, […] body weight, mice
Method: BALB/c, male, 6-8 week-old mice, weighing approximately 20g, were pooled into groups of three per condition, with adlib access to food and water. The reaction products were evaluated by FPLC and the proportions of individual species were estimated by fitting summated Gaussian curves to the FPLC profiles and estimating the area under the curve corresponding to each individual peak and expressing this as a % of the total area for the whole FPLC profile (Table 4b). The inventors have previously established that the individual peaks seen at low TMPEG concentrations (peaks 0, 1, 2 and 3) correspond to GM-CSF, PEG1-GM-CSF, PEG2-GM-CSF, PEG3-GM-CSF, respectively. At high TMPEG concentrations the peaks are broader and less well resolved thus fitting of individual Gaussian curves over all regions of the FPLC profile may not be possible. Thus peak 3 and the peaks for more highly substituted GM-CSF (potentially PEG4-7-GM-CSF) have been pooled. The peak eluting with the void volume peak is well resolved from the PEG4-7-GM-CSF and presumably represents aggregates, the area of this peak was used to estimate the proportion of aggregated material (Table 4b).
The different PEGylated samples and unmodified GM-CSF (Hoechst), all containing <4% [^125I]GM-CSF (Amersham, 1222 Ci/mmol) to serve as a tracer, were adminstrated at a dose of 0.0524µg in 100µl (3.45 x 10^-12 mole; equivalent to 2.5µg/kg body weight) by subcutaneous injection. The amount of TMPEG concomitantly administered is also indicated in Table 4a (MPEG has been shown not to influence t1/2, but does influence egress from the subcutaneous site). Up to eight 25µl tail vein blood samples were collected from each mouse using capillary tubes at various time points ranging between 10 minutes and 80 hours, to give a minimum of three samples per time point. Samples from the capillary tubes were washed immediately into 1ml of PBS containing 50 I.U. of heparin. Radioactivity was determined using a gamma counter (LKB 1270 Rackgamma) results being shown in Fig. 6a (open circles for untreated material, other symbols as indicated on the figure). Clearances for the materials of reactions A and B were clearly biphasic, presumably reflecting the large proportion of unmodified material remaining in these preparations (Table 4b). Half-lives were calculated using linear regression (log concentration versus time) for the slower clearing component if biphasic elimination was present (solid lines Figure 6a; dotted lines give the 95% confidence intervals).

[2] = tissue distribution, organ:blood concentration ratios; format: in vivo, mice; conditions: organ:blood concentration ratios versus GM-CSF, Fig.6b
Method: In order to establish the contributions to extended t1/2 we examined the tissue distribution of material prepared in an identical manner to reaction C, using an identical dose. At each of the times indicated, one aminal was sacrificed and organs/tissue including kidney, spleen, liver, lung, heart and femur were recovered and radioactivity was measured as above. […] The dotted and dashed lines indicate the blood levels of GM-CSF and PEG-GM-CSF respectively. The filled circles and open circles are the organ concentrations of PEG-GM-CSF and GM-CSF respectively. […] This is somewhat surprising since circa 24% of the reaction C mixture represents PEG1-GM-CSF (i.e. material below the renal threshold). […] Thus the degree of substitution desirable for individual targets will have to be assessed on a case-by-case basis. Table 4(A)

[3] = system: granulocyte-macrophage colony; experiment: granulocyte-macrophage colony assay (CFUgm) of GM-CSF growth stimulating activity; format: cell-based; conditions: versus comparable amounts of unmodified GM-CSF, 0.1 to 8 ng/ml, Fig.3a
Excerpt: (§1) A better approach is to perform a correlation analysis, plotting the response obtained with equivalent amounts of the modified and unmodified materials on an XY plot. Identical activity gives datum points randomly distributed about the line representing equal activity (the dashed lines). […] In contrast, the presence of inhibitory material, with or without loss of intrinsic activity, produces a departure, usually without convergence to the upper extremity.
(§2) Datum points are means of colony counts in triplicate dishes for three independent experiments (Fig. 3a) or of two independent thymidine uptake experiments (Fig 3b).

[4] = 3H-thymidine uptake assay of GM-CSF growth stimulating activity; format: cell-based; conditions: versus comparable amounts of unmodified GM-CSF, 0.0006 to 1.0ng/ml, Fig.3b
Excerpt: as §1, §2

[5] = partition of amphotericin in dextran/PEG biphasic system; format: physicochemical; conditions: 5% dextran T-500, 5% PEG-6000, pH 6.8, absorbance at 330 nm
[6] = degradation of 125I-GM-CSF on storage at 4°C, FPLC profiles; format: physicochemical; conditions: for relative amount of 125I, Peak 1: high molecular weight; for relative amount of 125I, Peak 2: intermediate fragments; for relative amount of 125I, Peak 3: low molecular weight
Excerpt: This process is slowed by PEG modification. […] When supplied, ^125I-GM-CSF has little or no low molecular weight labelled species. […] There has been generation of intermediate and low molecular weight fragments in both samples. The former are commensurate in size with proteolytic cleavage products and the latter either with free iodine or very small fragments (i.e. < circa 1kDa). Pegylation reduces the loss of high molecular weight species.

For “Reaction C: PEG-modified GM-CSF preparation, GM-CSF 0.524 µg/ml reacted with TMPEG 197.5 mg/ml”, the “fold increase of t1/2 over the control figure” value (shortened to “fold increase”) [1] was 10.3 fold, the t1/2 [1] was 16.8 h and the renal accumulation [2] was “substantially reduced”.
In the case of “Comparative Example 1: gm-CSF PEGylated with TMPEG made by a previously described method (WO90/04606, Example 1) [reference compound]”, the “growth stimulating activity as assessed by granulocyte-macrophage colony assay” value [3] is reported as “additional inhibitory activity” and the “growth stimulating activity as assessed by thymidine uptake” value [4] is reported as “loss of activity without significant inhibitory material”.
With `C[C@@H]1[C@H](O)[C@@H](C)/C=C/C=C/C=C/C=C/C=C/C=C/C=C/[C@H](O[C@@H]2O[C@H](C)[C@@H](O)[C@H](N)[C@@H]2O)C[C@@H]2O[C@](O)(C[C@@H](O)C[C@@H](O)[C@H](O)CC[C@@H](O)C[C@@H](O)CC(=O)O[C@H]1C)C[C@H](O)[C@H]2C(=O)O` [control, amphotericin] the “% material in the top (PEG-rich) phase” value [5] was 4.9 ± 0.2%.
With “PEG-CM-CSF: 125I-GM-CSF exposed to TMPEG at a molar ratio of 305:1” the “relative amount of 125I, Peak 1” value ([6]; After 1 Month Storage at 4°C) was 45.8, the “relative amount of 125I, Peak 2” value ([6]; After 1 Month Storage at 4°C) was 8.9 and the “relative amount of 125I, Peak 3” value ([6]; After 1 Month Storage at 4°C) was 36.3. The “relative amount of 125I, Peak 1” value ([6]; Before Storage) was 81.1, the “relative amount of 125I, Peak 2” value ([6]; Before Storage) was 0 and the “relative amount of 125I, Peak 3” value ([6]; Before Storage) was 12.4.
For “Reaction D: PEG-modified GM-CSF preparation, GM-CSF 0.524 µg/ml reacted with TMPEG 459.7 mg/ml; contains >50% of aggregates”, the “fold increase” value [1] was 15.3 fold and the t1/2 [1] was 25.1 h.
For “Reaction A: PEG-modified GM-CSF preparation, GM-CSF 0.524 µg/ml reacted with TMPEG 6.46 mg/ml”, the “fold increase” value [1] was 7.2 fold and the t1/2 [1] was 11.7 h.
For “Reaction B: PEG-modified GM-CSF preparation, GM-CSF 0.524 µg/ml reacted with TMPEG 19.75 mg/ml”, the “fold increase” value [1] was 11.1 fold and the t1/2 [1] was 18.1 h.
In the case of “gm-CSF PEGylated using the process of Example 1: gm-CSF coupled with TMPEG made by the process of the invention”, the “growth stimulating activity as assessed by granulocyte-macrophage colony assay” value [3] is reported as “no significant loss” and the “growth stimulating activity as assessed by thymidine uptake” value [4] is reported as “no significant loss”.
